Laboratory results reported in the supplement of paper PMC9170038.

System: MS2 coat protein
Experiment: apparent KD of MS2 coat protein; designed switch direction (-1 OFF switch, 1 ON switch): -1; higher = weaker reporter binding
Outline: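 Designed RNA switches with common flanks were transcribed on Illumina chips by stalled E. coli RNA polymerase and titrated with SNAP-549-labelled MS2 coat protein, from 0.7 or 1.5 nM doubling to 3 µM, in Tris-HCl pH 7.5 buffer with KCl, MgCl2, BSA, DTT, tRNA and Tween-20. Steps lasted 0.8–1.5 h (lowest) to 10–20 min (highest). Titrations ran without input, with 200 uM small-molecule ligand, or with an oligonucleotide input. Normalised cluster fluorescence was curve-fitted, and apparent KD is the per-design median over clusters.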

[1] = Eterna round: R95, input ligand: microRNA oligo, concentration not stated
[2] = Eterna round: R95, input ligand: FMN 200 uM
[3] = Eterna round: R95, input ligand: none
[4] = input ligand: microRNA oligo, concentration not stated

Sequence | apparent KD of MS2 coat protein (input ligand: FMN 200 uM) [nM] | apparent KD of MS2 coat protein (input ligand: none) [nM] | apparent KD of MS2 coat protein [1] [nM] | apparent KD of MS2 coat protein [2] [nM] | apparent KD of MS2 coat protein [3] [nM] | apparent KD of MS2 coat protein [4] [nM]
GUCUCACAUGAGGAUCACCCAUGUGAGGAUAUGGUUUCGCUGGCCGUAGCCAGUGGAACCAGAAGGCGCAUGAU [Mat - Exclusion 1 - JL Mod - D3] (Eterna round: R97, puzzle: Exclusion 1) | 24.7 | 23 | – | – | – | –
GUCUUGUCAGGAUAUCUUACAUAACAAUCGUAGUUACAAUUGGAGAAGGGACAUGAGGAUCACCCAUGUUAGCA [tap-tap-tappy36] (Eterna round: R97, puzzle: Exclusion 4) | 26.5 | 26.9 | – | – | – | –
GUGACCAUAGGAUAUACAUGAGGAUCACCCAUGUGCAGGUCGGAAGACCCGCGGUCAUGUAGAAGGAUGUAAUU [EX3 A.23] (Eterna round: R97, puzzle: Exclusion 3) | 18.2 | 16.2 | – | – | – | –
GUGAGGUAAGGAUAUAGUAGUGAAGGUAAGAUAUGAGAAUGCUAGAAGGUACAUGAGGAUCACCCAUGUUCGGG [JR_Exclu4_Sub089] (puzzle: Exclusion 4) | – | – | 173 | – | – | –
GUGAGUAGUCAGGAUAUGCUGUACAAAAGUACAGCAGAAGGGACUACAUGAGGAUCACCCAUGUUUACUUCAUG [Omei Ex6 B5] (Eterna round: R97, puzzle: Exclusion 6) | 522 | 609 | – | – | – | –
GUGGAACAAGGAUAUCUAACCUCGGACAUGAGGAUCACCCAUGUAUGUCUCAAGAGACCUAGAGAAGGUGUUCGUG [Eternabot (L1) Solution 32] (Eterna round: R97, puzzle: Exclusion 5) | 50.8 | 30.7 | – | – | – | –
GUGUAACAUGAGGAUCACCCAUGUCAGGAUAUGCGAAUUUCAUCAAAAGAUGAAAUUUGCAGAAGGGACUGUAC [Omei Ex1 A24] (Eterna round: R97, puzzle: Exclusion 1) | 99.2 | 60.9 | – | – | – | –
GUGUAACUACACGGGCUCAACAUGAGGAUCACCCAUGUCAUACACGCAAGCUUUUCGCUUGUCUUAUCUGUCCGUGA [Mainesleed] (puzzle: Sensor v3, turn-off variant 1) | – | – | 14.2 | 12.5 | 11.3 | –
GUGUACGGAGGAUAUAUAUGGGCAGCAUACGCUGCAGCUUCACAUGAGGAUCACCCAUGUAGAAGGCUGUGCAC [JL-ex2-2.10 Brourd mod] (puzzle: Exclusion 2) | – | – | 19.9 | – | – | –
GUGUAGAUAGGAUAUGCUGGAAUCUAGCGAAGCUAGGUUCUACAUGAGGAUCACCCAUGUAGAAGGGUCUACAC [Dot plot directed A v12] (puzzle: Exclusion 2) | – | – | 28.5 | – | – | –
GUGUAGUGAGGAUAUACAUGAGGAUCACCCAUGUGAAUAAGAUAGAAUAAGAUAAAGUGUAGAAGGUAUAGUGU [Excluse me!!! 17 - Jieux - Exclusion 3] (Eterna round: R96, puzzle: Exclusion 3) | 60.8 | 58.4 | – | – | – | 41.8
GUGUAGUGAGGAUAUACAUGAGGAUCACCCAUGUGAAUAAGAUAGAAUAAGAUAAAGUGUAGAAGGUAUAGUGU [Excluse me!!! 17 - Jieux - Exclusion 3] (puzzle: Exclusion 3) | – | – | 50 | – | – | –
GUGUGCACGCUGCGAUCCUACAUGAGGAUCACCCAUGUGGUCUGGUGGCGUGGGUCACCGGACUUGGCUCGUCUUGG [salish99_S_TOV1_R5_077] (Eterna round: R97, puzzle: Sensor, turn-off variant 1) | 171 | 169 | – | – | – | –
GUUAACGCAGGAUAUUAGUACAUGCACAUGAGGAUCACCCAUGUUUAGUGGGUCUAGGAAUAAGAAGGGCGAUGAA [EX5 #21] (Eterna round: R97, puzzle: Exclusion 5) | 210 | 227 | – | – | – | –
GUUACACAUGAGGAUCACCCAUGUGAGGAUAUGGAUUCGUUGCAAGUAGGCGAUGGAUCCAGAAGGCGCGUGAG [JR_Ex1_Sub080] (Eterna round: R97, puzzle: Exclusion 1) | 58.7 | 50.5 | – | – | – | –
GUUAUACAUGAGGAUCACCCAUGUCAGGAUAUUAUCUAUCUUUGGAAGCAUUGAUCGCUAAGAAGGGACUAGUA [Bubbles2] (Eterna round: R97, puzzle: Exclusion 1) | 28 | 33 | – | – | – | –
GUUAUGUCAGGAUAUGCUAAUGAUGAGUGAUCAGACAUGAUGUAGAAGGGACAUGAGGAUCACCCAUGUACUAA [EX4 #9] (Eterna round: R97, puzzle: Exclusion 4) | 30.6 | 29 | – | – | – | –

Sequence | apparent KD of MS2 coat protein (input ligand: FMN 200 uM) [nM] | apparent KD of MS2 coat protein (input ligand: none) [nM] | apparent KD of MS2 coat protein [1] [nM] | apparent KD of MS2 coat protein [2] [nM] | apparent KD of MS2 coat protein [3] [nM] | apparent KD of MS2 coat protein [4] [nM]
GUUAUUUCAGGAUAUACAUGAGGAUCACCCAUGUAAGCAAGGUGCCUGCAUCCCGACUGUAGAAGGGAAAUGAG [Eternabot (L2) Solution 61] (Eterna round: R97, puzzle: Exclusion 3) | 29.9 | 28.5 | – | – | – | –
GUUGGUUGAGAGGAUAUUGUACGCGAUGAGUGUCGAGAAGGUUCAACAUGAGGAUCACCCAUGUGGCUGAGUAA [Eternabot (L1) Solution 40] (Eterna round: R97, puzzle: Exclusion 6) | 442 | 32.1 | – | – | – | –
GUUGUUUAUGUAGGAUAUGCCUGGCGUGCCUUUGCAGAAGGACAUGAGGAUCACCCAUGUAUUGCGGUCUGCGUUCAGAUCGCA [salish99_ExNG1_r4_039] (Eterna round: R96, puzzle: Exclusion NG 1) | 59.5 | 39 | – | – | – | 26
GUUUCACAUGAGGAUCACCCAUGUGAGGAUAUACAUUUGUUAACCGUAGUUAAUAGAUGUAGAAGGCGCGUGAU [JRxlusion 4 - Jieux - Exclusion 1] (Eterna round: R97, puzzle: Exclusion 1) | 50.6 | 62.6 | – | – | – | –
GUUUCACAUGAGGAUCACCCAUGUGAGGAUAUGGACUUUUUGGCAAUAGUCGUUGGGUUCAGAAGGCGCGUGAU [JR_Exc1_Sub006] (Eterna round: R97, puzzle: Exclusion 1) | 45.2 | 49.4 | – | – | – | –
GUUUCGAGACGGAGAUCCGACAUGAGGAUCACCCAUGUCUCACAAGCUUUUUGCUCGUCUUAUACUCCUCUGUUCUC [Elimod 48 - Jieux - Sensor, turn-off variant 1] (Eterna round: R97, puzzle: Sensor, turn-off variant 1) | 15.6 | 17.7 | – | – | – | –
GUUUGCGCAGGAUAUACAUGAGGAUCACCCAUGUGAGAGAAAGAAGUGAGGAAGAAAAGUAGAAGGGCGUGACG [Mat - Exclusion 3 - Mod of Salish D72] (puzzle: Exclusion 3) | – | – | 58.4 | 301 | 39 | –
UAAAAGUCAGGAUAUGCGAGAGAUUGAAGUAUGGAAAGGUAGCAGAAGGGACAUGAGGAUCACCCAUGUGAGGA [JR_Exclu4_Sub095] (puzzle: Exclusion 4) | – | – | 31.7 | 51.1 | 29.5 | –
UAAAAGUGAGGAUAUCCAAUAUAUGACAUGAGGAUCACCCAUGUUUCCACUCGUACCUCCGGAGAAGGCACAAAAU [Ex5 #60] (Eterna round: R97, puzzle: Exclusion 5) | 25.2 | 28.6 | – | – | – | –
UAAAAUAAACAUGAGGAUCACCCAUGUGAAUGGACUCCUCGGGAGGAUAUUCUGCUUAAAGGUCAGGAGAAGGCCCAUUGCAAU [Isinza] (Eterna round: R96, puzzle: Exclusion NG 3) | 545 | 197 | – | – | – | 242
UAAAGUAUAUAGGAUAUCUAGCUGGAAACAGCUAGAGAAGGAUGUACAUGAGGAUCACCCAUGUAGAUCUCAAA [Ex6/15-A2] (Eterna round: R97, puzzle: Exclusion 6) | 19 | 16.2 | – | – | – | –
UAAAUGUGAGGAUAUUCGAUUUACUCGGAGACGAGUAGAUCGGAGAAGGCACAUGAGGAUCACCCAUGUUCCUU [Mat - Exclusion 4 - JL Mod - D10] (Eterna round: R97, puzzle: Exclusion 4) | 234 | 23.2 | – | – | – | –
UAACAAGCUUUAAGAUCCUACAUGAGGAUCACCCAUGUGCUCGUCUUAUAACGUACUGUGACGAAAGUCACGGUACG [JL TOV1 3.17] (Eterna round: R97, puzzle: Sensor, turn-off variant 1) | 206 | 160 | – | – | – | –
UAACUGCUCGUCUUGUUAAACAUGAGGAUCACCCAUGUCAGCCUGUAAGGGUACGGUAGAUAGGCCCGAUUGCAUGA [Eternabot (L1) Solution 11] (Eterna round: R97, puzzle: Sensor, turn-off variant 1) | 26.9 | 31.2 | – | – | – | –
UAAGUUUACCGAGGAUAUGGUCAAUAAUUAUGACCAGAAGGCGGACUCAACAUGAGGAUCACCCAUGUAUAAAGGGUAAUUGGU [JR_ExcNG1_Sub047] (Eterna round: R96, puzzle: Exclusion NG 1) | 154 | 90.8 | – | – | – | 110
UAAUAAAGUGUGAGGAUAUGCUGGUCGAUAGAUCAGCAGAAGGCACAUGAGGAUCACCCAUGUAAUAUAUAAAU [Mat - Exclusion 4 - JL Mod - D58] (puzzle: Brourd's mod of Exclusion 4) | – | – | 40.9 | 258 | 45 | –
UAAUACUCAGGAUAUAUGAUGUGAAACAUGAGGAUCACCCAUGUAAUAUUAUGGAUGUAAAUAGAAGGGAGAUUAU [Mat - Exclusion 5 - JL mod - D20] (puzzle: Exclusion 5) | – | – | 55.4 | 53.3 | 63 | –
